Assay [1] relates to olivetolic acid. Description: GPS-APT fusions, OA feed in vivo assay (Example 11). Type of assay: cell-based, Yarrowia. The settings on record: for CBGA / FCBGA: olivetolic acid feed as in Example 8, 48 h quench, strain sCL-SE-0128; for CBGA/FCBG: olivetolic acid feed, 48 h quench, product ratio. As for the experimental part: (§1) As described below, plasmids pCL-SE-0406, pCL-SE-0664, pCL-SE-0663, pCL-SE-0662, pCL-SE-0380 (MPT4), pCL-SE-0337.MPT21, pCL-SE-0337.MPT26, and pCL-SE-0337.MPT31 were transformed into strain sCL-SE-0128. Multiple colonies per transformation were precultured for 48 h in YNB containing glucose (2%), casamino acids (0.5%), and MES (100 mM pH 6.5). Pre-culture was used to inoculate assay medium comprised of YNB containing glucose (2%), casamino acids (0.5%), MES (100 mM pH 6.5), and olivetolic acid (2 mM). Cultures were quenched with equal volume of ethanol after 48 h total growth and assayed for CBGA and FCBGA. Averages and standard deviations were calculated from replicates.
Soluble prenyl transferase APT73.77 was fused with GPS1.1 at the N- or C-terminus with different linkers creating the plasmids shown in Table 14. These fusion proteins were expressed and screened as described in Example 8 (olivetolic acid feed)
(§2) Overnight YPD (10 g/L yeast extract, 20 g/L peptone, 2% dextrose) cultures were inoculated from glycerol stocks of the appropriate strain and grown at 30° C. with 250 rpm shaking. Once cultures had reached an OD600 of 4-6, cultures were centrifuged at 500×g for 5 min, supernatants were discarded, and cell pellets were resuspended in equal volume of water. Resuspended cells were centrifuged at 500×g for 5 min, supernatants were discarded, and cells were resuspended in a volume (75 μL×OD×Vculture) of transformation cocktail (45% PEG-400, 0.1 M LiAc, 0.1 M DTT, and 25 ug/100 μL SS Salmon Sperm DNA). For each transformation, >1 μg of plasmid DNA was added to 55 μL cells/transformation cocktail and vortexed for 2 s. Transformations were incubated at 39° C. for 1 h with 250 rpm shaking. Transformations were resuspended in 750 μL YPD with 1 M sorbitol and recovered at 30° C. overnight with 250 rpm shaking. The next day, transformations were centrifuged at 500×g for 5 min, supernatants were discarded, and cell pellets were resuspended in 750 YPD. Resuspended transformations were plated on YPD with appropriate selection or YNBD (6.71 g/L yeast nitrogen base+nitrogen, 0.5% casamino acids, 2% dextrose) agar plates and grown at 30° C. for 2 days. Individual colonies were patched onto YPD plates with appropriate selection or YNBD plates and grown at 30° C. overnight. Patches were used to inoculate 0.5 mL YPD with appropriate selection or YNBD precultures in 96 w blocks and grown at 30° C. for 24-48 h with 1000 rpm shaking. For assays, 0.5 mL YPD with appropriate selection or YNBD cultures containing substrate were inoculated with 2 μL from precultures and grown at 30° C. for 2-4 days with 1000 rpm shaking with 2% glucose added every 24 h. Assay cultures were quenched by addition of 0.5 mL ethanol with 0.2% formic acid and 0.5 mg/mL pentyl-benzoic acid. Precipitates were pelleted by centrifuging at 4600×g for 10 min and then 200 μL was transferred to fresh plates, sealed, and analyzed via HPLC.
(§3) All samples were quenched with equal volume of EtOH containing 0.2 mg/mL internal standard (3,5-Diisopropyl-2-hydroxybenzoic acid CAS #2215-21-6) centrifuged, and clarified solutions were analyzed by HPLC-MS
(§4) • Column: 2.1×50 mm COSMOCORE PBr (Nacalai USA, Inc.) • Mobile Phase: A; 0.1% formic acid in water, B; 0.1% formic acid in acetonitrile • Flow: 0.45 mL/min • Temp: % 50 Celsius • Gradient: 20%B at 0 min, 70%B at 2.3 min, 89% B at 4.2 min, 20% B at 4.3 min, 20%B at 6 min

In assay [2] the test system is olivetolic acid. Description: MPT fusions with GPS1.1 vs unfused MPTs, OA feed (Example 8, Table 9). Type of assay: cell-based, Yarrowia. As to conditions: 2 mM olivetolic acid, 48 h quench; for CBGA / FCBGA: 2% glucose, strain sCL-SE-0128; for CBGA/FCBGA: product ratio. As to the method:
as §1, §2, §3, §4

B1: APT73.77-F17-GPS1.1: fusion protein, SEQ ID NO: 64 (protein)
chain: MDEVYAAVEQTSRLLDVPCSPDRFEPVWKAFGDQLPDSHLVFSMAAGEAHRGELDFDFSLRPEGADPYTTALEHGFIEPTDHPVGSVLAEVGKRFAIASYGVEYGVVGGFKKSYAFFPLDDFPPLAQFAEVPSVPPCLAGHVETLTRLGFDDKVSIIGVNYRKNTLNVYLAASAVDTGDKLALLRAFGYPEPDARVRQFIERSFRLYPTFNWDSSAAERICFAVHTQQPGELPAPHDEPTEAFARQVPHVYEGGREFVSGVALAPSGASYYKLAALYQKARRCLDGGGGSMSKAKFESVFPRISEELVQLLRDEGLPQDAVQWFSDSLQYNCVGGKLNRGLSVVDTYQLLTGKKELDDEEYYRLALLGWLIELLQAFWLVSDDIMDESKTRRGQPCWYLKPKVGMIAIWDAFMLESGIYILLKKHFRQEKYYIDLVELFHDISFKTELGQLVDLLTAPEDEVDLNRFSLDKHSFIVRYKTAYYSFYLPVVLAMYVAGITNPKDLQQAMDVLIPLGEYFQVQDDYLDNFGDPEFIGKIGTDIQDNKCSWLVNKALQKATPEQRQILEDNYGVKDKSKELVIKKLYDDMKIEQDYLDYEEEVVGDIKKKIEQVDESRGFKKEVLNAFLAKIYKRQK
modifications: APT73.77-F17-GPS1.1, mutant soluble aromatic prenyltransferase, geranyl diphosphate synthase fusion protein
With B1, in assay [1], the CBGA is 242 ± 36 µM, the FCBGA is 73 ± 9 µM and the CBGA/FCBG amounted to 3.3.

B2: GPS1.1-F11-MPT26: fusion protein, SEQ ID NO: 26 (protein)
chain: MSKAKFESVFPRISEELVQLLRDEGLPQDAVQWFSDSLQYNCVGGKLNRGLSVVDTYQLLTGKKELDDEEYYRLALLGWLIELLQAFWLVSDDIMDESKTRRGQPCWYLKPKVGMIAIWDAFMLESGIYILLKKHFRQEKYYIDLVELFHDISFKTELGQLVDLLTAPEDEVDLNRFSLDKHSFIVRYKTAYYSFYLPVVLAMYVAGITNPKDLQQAMDVLIPLGEYFQVQDDYLDNFGDPEFIGKIGTDIQDNKCSWLVNKALQKATPEQRQILEDNYGVKDKSKELVIKKLYDDMKIEQDYLDYEEEVVGDIKKKIEQVDESRGFKKEVLNAFLAKIYKRQKGGAEAAAKEAAAKAGGSGGGSGGGGSGGSGGGGSGGGGSMSDNSIATKILNFGHTCWKLQRPYVVKGMISIACGLFGKELLHNTNLISWGLMWKAFFALVPILSFNFFAAIMNQIYDVDIDRINKPDLPLVSGEMSIETAWILSIIVALTGLIVTIKLKSAPLFVFIYIFGIFAGFAYSVPPIRWKQNPSTNFLITISSHVGLAFTSYSATTSALGLPFVWRPAFSFIIAFMTVMGMTIAFAKDISDIEGDAKYGVSTVATKLGARNMTFVVSGVLLLNYVAAILAGIIWPQAFNSNVMLLSHAILAFWLILQTRDFALTNYDPEAGRRFFEFIWLLYYAEYFVYVFI
modifications: GPS1.1-F11-MPT26, geranyl diphosphate synthase, recombinant membrane-bound prenyltransferase fusion protein
Take B2: in assay [2], the CBGA was determined as 98 ± 8 µM, the FCBGA was 21 ± 2 µM and the CBGA/FCBGA is 4.6.

B3: GPS1.1-F11-MPT31: fusion protein, SEQ ID NO: 27 (protein)
chain: MSKAKFESVFPRISEELVQLLRDEGLPQDAVQWFSDSLQYNCVGGKLNRGLSVVDTYQLLTGKKELDDEEYYRLALLGWLIELLQAFWLVSDDIMDESKTRRGQPCWYLKPKVGMIAIWDAFMLESGIYILLKKHFRQEKYYIDLVELFHDISFKTELGQLVDLLTAPEDEVDLNRFSLDKHSFIVRYKTAYYSFYLPVVLAMYVAGITNPKDLQQAMDVLIPLGEYFQVQDDYLDNFGDPEFIGKIGTDIQDNKCSWLVNKALQKATPEQRQILEDNYGVKDKSKELVIKKLYDDMKIEQDYLDYEEEVVGDIKKKIEQVDESRGFKKEVLNAFLAKIYKRQKGGAEAAAKEAAAKAGGSGGGSGGGGSGGSGGGGSGGGGSMSDNSIATKILNFGHACWKLQRPYVVKGMISIACGLFGRELLHNTNLISWGLMWKAFFALVPILSFNFFAAIMNQIYDLHIDRINKPDLPLASGEISVNTAWIMSIIVALTGLIVTIKLKSAPLFVFIYIFGIFAGFAYSVPPIRWKQNPSTNFLITISSHVGLAFTSYYASRAALGLPFELRPSFTFLLAFMTVMGMTIAFAKDISDIEGDAKYGVSTVATKLGARNMTFVVSGVLLLNYLVSISIGIIWPQVFKSNIMILSHAILAFWLILQTRDFALTNYDPEAGRRFFEFIWLLYYAEYLVYVFI
modifications: GPS1.1-F11-MPT31, geranyl diphosphate synthase, recombinant membrane-bound prenyltransferase fusion protein
With B3, in assay [2], the CBGA amounted to 53 ± 4 µM, the FCBGA stood at 5 ± 0 µM and the CBGA/FCBGA is 10.8.

B4: GPS1.1-F16-APT73.77: fusion protein, SEQ ID NO: 63 (protein)
chain: MSKAKFESVFPRISEELVQLLRDEGLPQDAVQWFSDSLQYNCVGGKLNRGLSVVDTYQLLTGKKELDDEEYYRLALLGWLIELLQAFWLVSDDIMDESKTRRGQPCWYLKPKVGMIAIWDAFMLESGIYILLKKHFRQEKYYIDLVELFHDISFKTELGQLVDLLTAPEDEVDLNRFSLDKHSFIVRYKTAYYSFYLPVVLAMYVAGITNPKDLQQAMDVLIPLGEYFQVQDDYLDNFGDPEFIGKIGTDIQDNKCSWLVNKALQKATPEQRQILEDNYGVKDKSKELVIKKLYDDMKIEQDYLDYEEEVVGDIKKKIEQVDESRGFKKEVLNAFLAKIYKRQKGGGSGGGSGGGSGGGGSMDEVYAAVEQTSRLLDVPCSPDRFEPVWKAFGDQLPDSHLVFSMAAGEAHRGELDFDFSLRPEGADPYTTALEHGFIEPTDHPVGSVLAEVGKRFAIASYGVEYGVVGGFKKSYAFFPLDDFPPLAQFAEVPSVPPCLAGHVETLTRLGFDDKVSIIGVNYRKNTLNVYLAASAVDTGDKLALLRAFGYPEPDARVRQFIERSFRLYPTFNWDSSAAERICFAVHTQQPGELPAPHDEPTEAFARQVPHVYEGGREFVSGVALAPSGASYYKLAALYQKARRCLD
modifications: GPS1.1-F16-APT73.77, geranyl diphosphate synthase, mutant soluble aromatic prenyltransferase fusion protein
Consider B4, for which, in assay [1], the CBGA turned out to be 421 ± 44 µM, the FCBGA is 113 ± 12 µM and the CBGA/FCBG is 3.7.

B5: GPS1.1-F18-APT73.77: fusion protein, SEQ ID NO: 65 (protein)
chain: MSKAKFESVFPRISEELVQLLRDEGLPQDAVQWFSDSLQYNCVGGKLNRGLSVVDTYQLLTGKKELDDEEYYRLALLGWLIELLQAFWLVSDDIMDESKTRRGQPCWYLKPKVGMIAIWDAFMLESGIYILLKKHFRQEKYYIDLVELFHDISFKTELGQLVDLLTAPEDEVDLNRFSLDKHSFIVRYKTAYYSFYLPVVLAMYVAGITNPKDLQQAMDVLIPLGEYFQVQDDYLDNFGDPEFIGKIGTDIQDNKCSWLVNKALQKATPEQRQILEDNYGVKDKSKELVIKKLYDDMKIEQDYLDYEEEVVGDIKKKIEQVDESRGFKKEVLNAFLAKIYKRQKGGGGSLEDPAVWEAGKVVAKGVGTADITATTSNGLIASSEEADNAATSMDEVYAAVEQTSRLLDVPCSPDRFEPVWKAFGDQLPDSHLVFSMAAGEAHRGELDFDFSLRPEGADPYTTALEHGFIEPTDHPVGSVLAEVGKRFAIASYGVEYGVVGGFKKSYAFFPLDDFPPLAQFAEVPSVPPCLAGHVETLTRLGFDDKVSIIGVNYRKNTLNVYLAASAVDTGDKLALLRAFGYPEPDARVRQFIERSFRLYPTFNWDSSAAERICFAVHTQQPGELPAPHDEPTEAFARQVPHVYEGGREFVSGVALAPSGASYYKLAALYQKARRCLD
modifications: GPS1.1-F18-APT73.77, geranyl diphosphate synthase, mutant soluble aromatic prenyltransferase fusion protein
With B5, in assay [1], the CBGA is 468 ± 24 µM, the FCBGA is 121 ± 2 µM and the CBGA/FCBG is 3.9.

The record behind these values is patent US20240228986A1, “ENGINEERED CELLS, ENZYMES, AND METHODS FOR PRODUCING CANNABINOIDS” (priority 2021, published 2024).
